Source: FireProtDB (doi:10.1093/protein/gzi051)

B1: Alpha-lactalbumin, P00711 (parent)
chain: MMSFVSLLLVGILFHATQAEQLTKCEVFRELKDLKGYGGVSLPEWVCTTFHTSGYDTQAIVQNNDSTEYGLFQINNKIWCKDDQNPHSSNICNISCDKFLDDDLTDDIMCVKKILDKVGINYWLAHKALCSEKLDQWLCEKL

Variants of: B1
Conditions: Bos taurus, pH 7.7, Thermal, Fluorescence, HEPES-KOH 10 mM, structure 1HFZ, whole UniProt chain shown

| Variant | Tm (CaCl2 1 mM) [°C] | change of melting temperature, mutant - wild type (higher = more stable) (CaCl2 1 mM) [°C] | Tm [°C] |
| --- | --- | --- | --- |
| E44A | 60.9 | 1.1 | 19.5 |
| E26Q | 67.7 | 7.9 | 27 |
| E20Q |  |  | 23.5 |
| E20M | 69.8 | 10 | 36.8 |
| E30L |  |  | 27.5 |
| D56N | 74.2 | 14.4 | 31.7 |
